Where two headings read alike, the source gives them in different places.
Columns and labels:
[1] = target: T4 capsid (empty head isolated from 10-amber 13-amber hoc-del soc-del T4 phage-infected E. coli) (bacteriophage T4) (UniProt P04535)
[2] = target: T4 capsid (empty head isolated from 10-amber 13-amber hoc-del soc-del T4 phage-infected E. coli) (bacteriophage T4) (UniProt P04535); assay: Soc-TAT displayed on T4(Luci) capsids used for transduction (FIG. 28)
[3] = target: T4 capsid (empty head isolated from 10-amber 13-amber hoc-del soc-del T4 phage-infected E. coli) (bacteriophage T4) (UniProt P04535); assay: in vitro display on T4 heads, sedimentation, SDS-PAGE densitometry with gp23* as internal control
[4] = target: T4 capsid (empty head isolated from 10-amber 13-amber hoc-del soc-del T4 phage-infected E. coli) (bacteriophage T4) (UniProt P04535); assay: copies displayed per T4 capsid, Soc-RGD against RGD-Hoc
[5] = target: T4 capsid (empty head isolated from 10-amber 13-amber hoc-del soc-del T4 phage-infected E. coli) (bacteriophage T4) (UniProt P04535); assay: Cas9-Soc in complex with siRNA displayed on T4 capsid
[6] = target: T4 capsid (empty head isolated from 10-amber 13-amber hoc-del soc-del T4 phage-infected E. coli) (bacteriophage T4) (UniProt P04535); assay: Cas9-Soc in complex with gRNA displayed on T4 capsid
[7] = target: T4 capsid (empty head isolated from 10-amber 13-amber hoc-del soc-del T4 phage-infected E. coli) (bacteriophage T4) (UniProt P04535); assay: Cas9-Soc-gRNA RNP co-displayed with Cre-Hoc on the same T4 capsid
[8] = target: T4 capsid (empty head isolated from 10-amber 13-amber hoc-del soc-del T4 phage-infected E. coli) (bacteriophage T4) (UniProt P04535); assay: display on T4 capsids at increasing ratios, SDS-PAGE (FIG. 21)
[9] = target: T4 capsid (empty head isolated from 10-amber 13-amber hoc-del soc-del T4 phage-infected E. coli) (bacteriophage T4) (UniProt P04535); assay: Cre-Hoc co-displayed with Cas9-Soc-gRNA RNP on the same T4 capsid
[10] = target: T4 capsid (empty head isolated from 10-amber 13-amber hoc-del soc-del T4 phage-infected E. coli) (bacteriophage T4) (UniProt P04535); assay: display on T4 capsids at increasing ratios, SDS-PAGE (FIG. 20)

Soc-TAT (from UniProt P03715 1-80)
Copies/ capsid (copies per capsid) [1]: 750 | copies per capsid (copies per capsid) [2]: 520

GFP-Soc (from UniProt P03715 1-80)
Copies/ capsid (copies per capsid) [1]: 660

Cpf1-Soc (SEQ ID NO: 17)
Copies/ capsid (copies per capsid) [3]: 450

Soc-RGD (from UniProt P03715 1-80)
Copies/ capsid (copies per capsid) [1]: 710 | fold copy number against RGD-Hoc [4]: 8.3 fold

RGD-Hoc (SEQ ID NO: 19) (from UniProt P18056 1-376)
Copies/ capsid (copies per capsid) [3]: 85

Cre-Soc (SEQ ID NO: 22)
Copies/ capsid (copies per capsid) [1]: 630

Cas9-Soc (SEQ ID NO: 16) (from UniProt Q99ZW2 1-1368)
copies per capsid (copies per capsid) [5]: 280 | copies per capsid (copies per capsid) [6]: 280 | Copies/ capsid (copies per capsid) [1]: 550 | molecules per AV (molecules per capsid) [7]: 270

Cre-Hoc (SEQ ID NO: 18)
ratio of protein molecules to binding sites at saturation (molecules per binding site) [8]: 15 to 20 | Copies/ capsid (copies per capsid) [1]: 95 | molecules per AV (molecules per capsid) [9]: 50

β-Gal-Soc (from UniProt P00722 2-1024; P03715 1-80) (enzyme)
ratio of protein molecules to binding sites at saturation (molecules per binding site) [10]: 15 to 20 | Copies/ capsid (copies per capsid) [1]: 320
